Test results reported in publication PMC4395133 (Molecular Biology of the Cell, 2015).

B1: GST-IMPα4 (natural protein, mouse, UniProt O35343 1-521, looked up)
chain: MADNEKLDNQRLKNFKNKGRDLETMRRQRNEVVVELRKNKRDEHLLKRRNVPQEDICEDSDIDGDYRVQNTSLEAIVQNASSDNQGIQLSAVQAARKLLSSDRNPPIDDLIKSGILPILVHCLERDDNPSLQFEAAWALTNIASGTSEQTQAVVQSNAVPLFLRLLHSPHQNVCEQAVWALGNIIGDGPQCRDYVISLGVVKPLLSFISPSIPITFLRNVTWVMVNLCRHKDPPPPMETIQEILPALCVLIHHTDVNILVDTVWALSYLTDAGNEQIQMVIDSGIVPHLVPLLSHQEVKVQTAALRAVGNIVTGTDEQTQVVLNCDALSHFPALLTHPKEKINKEAVWFLSNITAGNQQQVQAVIDANLVPMIIHLLDKGDFGTQKEAAWAISNLTISGRKDQVAYLIQQNVIPPFCNLLTVKDAQVVQVVLDGLSNILKMAEDQAETIANLIEECGGLEKIEQLQNHENEDIYKLAYEIIDQFFSSDDIDEDPSLVPESVQGGTFGFNSSTNVPTEGFQF
B2: HIS-tagged recombinant PSPC1 (natural protein, mouse, UniProt Q8R326-1 3-523, looked up)
chain: LRGNLKQVRIEKNPARLRALESAAGESEPVAAAAMALTLAGEQAPPPAPSEEHPDEELGFTIDIKSFLKPGEKTYTQRCRLFVGNLPTDITEEDFKRLFERYGEPSEVFINRDRGFGFIRLESRTLAEIAKAELDGTILKSRPLRIRFATHGAALTVKNLSPVVSNELLEQAFSQFGPVEKAVVVVDDRGRATGKGFVEFAAKPPARKALERCGDGAFLLTTTPRPVIVEPMEQFDDEDGLPEKLMQKTQQYHKEREQPPRFAQPGTFEFEYASRWKALDEMEKQQREQVDRNIREAKEKLEAEMEAARHEHQLMLMRQDLMRRQEELRRLEELRNQELQKRKQIQLRHEEEHRRREEEMIRHREQEELRRQQEGGFKPNYMENREQEMRMGDMGPRGAINMGDAFSPAPAGTQGPPPMMGMNMNNRGTIPGPPMGPGPAMGPEGAANMGTPMIPDNGAVHNDRFPQGPPSQMGSPMGNRTGSETPQAPMSGVGPVSGGPGGFGRGSQGGNFEGPNKRRRY

What was measured:
Assay in all cases: ELISA
[1] = target: B2
[2] = target: GST-tagged full-length IMPα2 (mouse, UniProt P52293 1-529)
GST-IMPα6 = GST-IMPα6 (mouse, UniProt O35345 1-536)
[3] = target: IMPα2/GST-IMPβ1 heterodimer (tag-free IMPα2 predimerized with GST-IMPβ1) (mouse | , UniProt P52293 1-529; P70168 1-876)
Chain of IMPα2/GST-IMPβ1 heterodimer (tag-free IMPα2 predimerized with GST-IMPβ1) (P70168 whole entry, one chain of several): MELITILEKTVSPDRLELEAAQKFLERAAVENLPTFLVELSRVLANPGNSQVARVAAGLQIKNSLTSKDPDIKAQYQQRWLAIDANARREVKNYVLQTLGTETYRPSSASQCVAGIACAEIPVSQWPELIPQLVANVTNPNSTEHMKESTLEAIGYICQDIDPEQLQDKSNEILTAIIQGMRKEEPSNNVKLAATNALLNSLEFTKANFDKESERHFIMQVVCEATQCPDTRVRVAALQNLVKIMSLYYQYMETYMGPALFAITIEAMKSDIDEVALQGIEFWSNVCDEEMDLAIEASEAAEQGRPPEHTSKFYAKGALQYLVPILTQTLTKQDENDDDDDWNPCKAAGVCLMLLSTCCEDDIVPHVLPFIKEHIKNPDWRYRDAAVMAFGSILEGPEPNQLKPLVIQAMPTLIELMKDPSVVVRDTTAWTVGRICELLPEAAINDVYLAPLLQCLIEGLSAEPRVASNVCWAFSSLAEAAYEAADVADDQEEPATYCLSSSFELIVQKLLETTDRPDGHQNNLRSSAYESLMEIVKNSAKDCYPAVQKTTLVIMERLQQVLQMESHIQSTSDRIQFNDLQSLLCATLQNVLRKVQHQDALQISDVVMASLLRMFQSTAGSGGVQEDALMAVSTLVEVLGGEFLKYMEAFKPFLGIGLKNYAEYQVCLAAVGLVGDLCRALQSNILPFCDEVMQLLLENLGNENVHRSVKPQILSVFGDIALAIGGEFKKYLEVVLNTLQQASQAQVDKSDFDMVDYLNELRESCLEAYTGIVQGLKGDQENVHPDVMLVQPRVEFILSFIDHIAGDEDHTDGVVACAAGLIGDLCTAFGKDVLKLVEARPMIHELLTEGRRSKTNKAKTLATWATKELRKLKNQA

[4] = target: IMPα4/GST-IMPβ1 heterodimer (tag-free IMPα4 predimerized with GST-IMPβ1) (mouse | , UniProt O35343 1-521; P70168 1-876)
Chain of IMPα4/GST-IMPβ1 heterodimer (tag-free IMPα4 predimerized with GST-IMPβ1) (P70168 whole entry, one chain of several): as above

[5] = target: IMPα6/GST-IMPβ1 heterodimer (tag-free IMPα6 predimerized with GST-IMPβ1) (mouse | , UniProt O35345 1-536; P70168 1-876)
Chain of IMPα6/GST-IMPβ1 heterodimer (tag-free IMPα6 predimerized with GST-IMPβ1) (P70168 whole entry, chain 2 of 2): as the sequence (P70168 whole entry, one chain of several) above

| Kd [1] | Kd [2] | Kd (GST-IMPα6) | Kd [3] | Kd [4] | Kd [5] | Binder |
| --- | --- | --- | --- | --- | --- | --- |
| 57.9 nM |  |  |  |  |  | B1 |
|  | 15 nM | 5.9 nM | 1.9 nM | 21.3 nM | 2.1 nM | B2 |
